Data reported in patent US20200207829.

Legend:
TMt-NLS-dCas9VP64 = molecular target: T1, TMt-NLS-dCas9VP64
T1 chain: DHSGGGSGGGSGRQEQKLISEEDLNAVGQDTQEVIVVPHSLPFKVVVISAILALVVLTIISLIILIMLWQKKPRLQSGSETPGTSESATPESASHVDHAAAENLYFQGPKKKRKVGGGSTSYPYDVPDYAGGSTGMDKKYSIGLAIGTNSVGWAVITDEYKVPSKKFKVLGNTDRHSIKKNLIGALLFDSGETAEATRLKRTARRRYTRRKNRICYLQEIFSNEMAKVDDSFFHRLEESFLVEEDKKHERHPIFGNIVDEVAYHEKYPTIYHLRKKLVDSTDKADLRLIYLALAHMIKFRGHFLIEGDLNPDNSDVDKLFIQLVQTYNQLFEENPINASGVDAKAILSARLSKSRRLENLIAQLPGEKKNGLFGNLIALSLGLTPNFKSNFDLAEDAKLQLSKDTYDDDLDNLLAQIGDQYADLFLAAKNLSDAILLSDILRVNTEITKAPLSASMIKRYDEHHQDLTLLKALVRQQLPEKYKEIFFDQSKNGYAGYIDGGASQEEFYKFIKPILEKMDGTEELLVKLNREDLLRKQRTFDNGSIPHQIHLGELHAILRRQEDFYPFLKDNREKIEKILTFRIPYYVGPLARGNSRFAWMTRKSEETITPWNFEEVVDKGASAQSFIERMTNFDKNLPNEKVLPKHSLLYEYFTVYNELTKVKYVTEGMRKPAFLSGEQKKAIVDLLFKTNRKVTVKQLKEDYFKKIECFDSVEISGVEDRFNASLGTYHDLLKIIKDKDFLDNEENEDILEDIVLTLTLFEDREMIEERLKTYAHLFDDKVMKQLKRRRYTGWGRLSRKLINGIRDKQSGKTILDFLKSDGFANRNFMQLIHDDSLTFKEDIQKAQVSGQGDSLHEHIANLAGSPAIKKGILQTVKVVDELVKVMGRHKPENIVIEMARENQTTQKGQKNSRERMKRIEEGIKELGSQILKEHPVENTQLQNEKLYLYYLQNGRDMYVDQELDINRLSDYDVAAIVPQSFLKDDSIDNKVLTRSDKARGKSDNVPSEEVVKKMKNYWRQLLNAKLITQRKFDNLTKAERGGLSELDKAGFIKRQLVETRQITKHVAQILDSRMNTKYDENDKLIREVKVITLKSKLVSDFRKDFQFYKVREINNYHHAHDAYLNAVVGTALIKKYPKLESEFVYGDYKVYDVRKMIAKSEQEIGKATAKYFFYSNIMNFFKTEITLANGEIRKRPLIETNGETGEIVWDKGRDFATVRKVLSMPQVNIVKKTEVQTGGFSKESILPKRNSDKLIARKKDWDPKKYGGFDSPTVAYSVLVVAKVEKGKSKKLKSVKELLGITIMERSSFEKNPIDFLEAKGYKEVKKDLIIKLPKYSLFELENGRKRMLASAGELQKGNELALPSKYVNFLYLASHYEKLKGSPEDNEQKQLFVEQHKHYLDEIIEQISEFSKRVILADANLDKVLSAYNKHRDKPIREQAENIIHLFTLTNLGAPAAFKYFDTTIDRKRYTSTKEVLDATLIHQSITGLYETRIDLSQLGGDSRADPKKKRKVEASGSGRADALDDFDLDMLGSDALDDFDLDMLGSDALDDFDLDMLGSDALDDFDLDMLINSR

B1: TEV protease (protein)
chain: MHHHHHHHHHGESLFKGPRDYNPISSTICHLTNESDGHTTSLYGIGFGPFIITNKHLFRRNNGTLLVQSLHGVFKVKNTTTLQQHLIDGRDMIIIRMPKDFPPFPQKLKFREPQREERICLVTTNFQTKSMSSMVSDTSCTFPSSDGIFWKHWIQTKDGQCGSPLVSTRDGFIVGIHSASNFTNTNNYFTSVPKNFMELLTNQEAQQWVSGWRLNADSVLWGGHKVFMVKPEEPFQPVKEATQLMNRRRRP
Question: B1 was tested. Which EYFP activation score (TMt-NESΔTCS-dCas9VP64) did it give?
Answer: The EYFP activation score was “did not show any activity above baseline levels”.

Question: What about the “anti-HA immunofluorescence, localisation of dCas9-VP64” value (TMt-NLS-dCas9VP64) of the same protein?
Answer: Its value is “co-expression of TEV protease resulted in highly efficient release of dCas9-VP64 from the membrane tether and subsequent nuclear localization”.
